This is an account of results in patent US20130157945A1 (NEW YORK UNIVERSITY SCHOOL OF MEDICINE, published 2013).

As usually defined, the Kd is the equilibrium constant for the complex coming apart. One may read the koff as the rate constant with which the complex falls apart. A higher koff goes with a short-lived complex. One may read the kon as a measure of how fast the partners come together. A low value points to slower complex formation.

Assay [1] has as its target T1, Atsttrin (yeast two-hybrid construct in pDBleu) (human, UniProt P04386 1-147 (Saccharomyces cerevisiae entry), limits assumed).
T1 construct: domain: Gal4 DBD; also called ½A+P3+P4+½C+P5+½F; ½F-P3-P4-½A-P5-½C
As to the kind of experiment: yeast two-hybrid, β-galactosidase assay.

In assay [2] the target is T2, TNFR1 (as used in the surface plasmon resonance assays) (UniProt P19438 30-211, limits assumed).
T2 sequence (looked up): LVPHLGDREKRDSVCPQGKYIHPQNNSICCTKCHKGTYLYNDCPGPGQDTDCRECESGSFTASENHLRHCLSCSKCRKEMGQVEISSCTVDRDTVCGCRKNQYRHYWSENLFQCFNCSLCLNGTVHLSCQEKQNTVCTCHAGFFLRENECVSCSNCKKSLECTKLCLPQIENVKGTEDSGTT
As to the kind of experiment: surface plasmon resonance (SensiQ Pioneer, FastStep kinetic assay). (SPR reads the build-up and loss of mass on a sensor chip optically.)

In assay [3] the target is T3, TNFR2 (as used in the surface plasmon resonance assays) (UniProt P20333 23-257, limits assumed).
T3 sequence (looked up): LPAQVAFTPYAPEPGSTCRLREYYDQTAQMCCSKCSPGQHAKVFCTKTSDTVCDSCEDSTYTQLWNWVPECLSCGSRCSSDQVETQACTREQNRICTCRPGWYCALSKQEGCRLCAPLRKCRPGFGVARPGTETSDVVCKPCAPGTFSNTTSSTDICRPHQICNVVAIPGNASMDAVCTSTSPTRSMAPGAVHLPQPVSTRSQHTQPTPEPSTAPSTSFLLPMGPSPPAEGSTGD
Description: surface plasmon resonance.

The target of assay [4] is T2, TNFR1 (as used in the surface plasmon …). As to the kind of experiment: surface plasmon resonance.
For assay [5] the target is unchanged. As to the kind of experiment: surface plasmon resonance, KD against that of TNFα/TNFR1.
The target of assay [6] is T3, TNFR2 (as used in the surface plasmon …). Description: surface plasmon resonance, KD against that of TNFα/TNFR2.

B1: RANK (yeast two-hybrid plasmid of Example 9) (receptor, UniProt Q9Y6Q6 30-212, looked up)
chain: IAPPCTSEKHYEHLGRCCNKCEPGKYMSSKCTTTSDSVCLPCGPDEYLDSWNEEDKCLLHKVCDTGKALVAVVAGNSTTPRRCACTAGYHWSQDCECCRRNTECAPGLGAQHPLQLNKDTVCKPCLAGYFSDAFSSTDKCRPWTNCTFLGKRVEHHGTEKSDAVCSSSLPARKPPNEPHVYLP
For B1, the binding result in assay [1] was “no binding”.

B2: recombinant GEP (granulin/epithelin precursor) (ligand)
chain: TRCPDGQFCPVACCLDPGGASYSCCRPLLDKWPTTLSRHLGGPCQVDAHCSAGHSCIFTVSGTSSCCPFPEAVACGDGHHCCPRGFHCSADGRSCFQRSGNNSVGAIQCPDSQFECPDFSTCCVMVDGSWGCCPMPQASCCEDRVHCCPHGAFCDLVHTRCITPTGTHPLAKKLPAQRTNRAVALSSSVMCPDARSRCPDGSTCCELPSGKYGCCPMPNATCCSDHLHCCPQDTVCDLIQSKCLSKENATTDLLTKLPAHTVGDVKCDMEVSCPDGYTCCRLQSGAWGCCPFTQAVCCEDHIHCCPAGFTCDTQKGTCEQGPHQVPWMEKAPAHLSLPDPQALKRDVPCDNVSSCPSSDTCCQLTSGEWGCCPIPEAVCCSDHQHCCPQRYTCVAEGQCQRGSEIVAGLEKMPARRGSLSHPRDIGCDQHTSCPVGGTCCPSQGGSWACCQLPHAVCCEDRQHCCPAGYTCNVKARSCEKEVVSAQPATFLARSPHVGVKDVECGEGHFCHDNQTCCRDNRQGWACCPYAQGVCCADRRHCCPAGFRCARRGTKCLRREAPRWDAPLRDPALRQLL
notes: also called purified GEP; PGRN
Turning to B2, in assay [2], binding was characterised by a dissociation constant (Kd) of 1.58 nM, the dissociation rate constant (koff) stood at 0.000814 s⁻¹ and the kon amounted to 516000 M⁻¹ s⁻¹.

B3: FAS (yeast two-hybrid plasmid of Example 9) (receptor, UniProt P25445 26-173, looked up)
chain: QVTDINSKGLELRKTVTTVETQNLEGLHHDGQFCHKPCPPGERKARDCTVNGDEPDCVPCQEGKEYTDKAHFSSKCRRCRLCDEGHGLEVEINCTRTQNTKCRCKPNFFCNSTVCEHCDPCTKCEHGIIKECTLTSNTKCKEEGSRSN
Take B3: in assay [1], the binding result is reported as “no binding”.

B4: Atsttrin (recombinant, released from GST-Atsttrin by factor Xa) (peptide)
chain: PQASCCEDRVHCCPHGAFCDLVHTRCITPTGTHPLAKKLPAQRTNRAVALSSSASSKENATTDLLTKLPAHTVGDVKCDMEVSCPDGYTCCRLQSGAWPWCEQGPHQVPWMEKAPAHLSLPDPQALKRDVPCDNVSSCPSSDTCCQLTSGEWGCCPIP
notes: Expressed in bacteria as GST fusion, cleaved with factor Xa; also called Antagonist of TNF/TNFR Signaling via Targeting TNF Receptors; purified Atsttrin
On to B4, for which the values for the Kd in assay [3] and in assay [4] were 85.9 nM and 160 nM, respectively. Also, the “fold lower affinity than TNFα” value in assay [5] was around 18 fold. In addition, in assay [6], the “fold higher binding affinity than TNFα” value is around 9 fold.
